Measurements from US9719113B2 (priority 2014, dated 2017).

B1: nahG^opt: salicylate 1-monoxygenase (SMO) from P. putida DOT-T1E, encoded by codon-optimized gene nahG^opt (protein, listed as Escherichia coli)
chain: MQNSTSALNVSIIGGGIAGVALALDLCRHAHLNVQLFEAAPAFGEVGAGVSFGANAVRAIAGLGIAEPYGKIADSNPAPWQDIWFEWRNGRDAKYLGCSVAEGVGQSSVHRADFLDALASQLPDGIAQFGKRAQRVEQDGEQVRVTFTDGSEHRCDLLIGADGIKSSIRDHVLQGLNQPLASPRFSGTCAYRGLIDSQQLREAYRARGVDEHLIDVPQMYLGLDGHILTFPVKQGRLINVVAFISDRSQPNPVWPSDTPWVRNATQAEMLAAFEGWDDAAQVLLECIPTPSLWALHDLAELPGYVHGRVGLIGDAAHAMLPHQGAGAGQGLEDAWLLARLLEDPKVLDKRPQAVLDAYDAVRRPRACRVQRTSFEAGELYEFRDPAVLADEERLGKVLAERFDWLWNHDMQEDLLQARELLGLRAQAA

How the values were obtained:
QH4 strain = conditions: SA added to cell cultures at 0-1000 mg/L; QH4 cells
Text: All data points are reported as mean±s.d. from three independent experiments. […] All data points are reported as mean±s.d. from two independent experiments.

[1] = Screening SMOs in vivo (conversion of SA to catechol by whole cells); assay type: cell-based; conditions: E. coli BW25113 carrying pZE12-luc expression vector, 2 mM SA, 37° C., catechol formation rate
Method: To evaluate the activity of enzymes converting SA to catechol, E. coli BW25113 was transformed with the expression vectors pZE-ppbenABCD, pZE-paantABC, pZE-pfantABC and pZE-NahG, separately. The resultant transformants were inoculated in 3 ml LB liquid medium containing 100 μg/ml of ampicillin and grown aerobically at 37° C. The overnight cultures were inoculated into 20 ml fresh LB medium and left to grow at 37° C. till OD600 reached 0.6 and then induced with 0.25 mM of IPTG at 37° C. for additional 3 h. Then the cells were harvested, and re-suspended in M9Y medium (OD600=2.1-2.7). SA was added into the cell suspension to a final concentration of 2 mM. The flasks were incubated with shaking at 37° C. for 10 min for the SMO encoded by nahG^opt and 1 h for ppBenABCD, paAntABC, and pfAntABC. Samples were taken by removing cell pellets and the product (catechol) concentrations were measured with HPLC. The in vivo activity was expressed as μM/min/OD.
Following the reconstitution and optimization of an SA biosynthetic pathway, our subsequent effort was focused on constructing the SA degradation pathway. SMO catalyzes the first enzymatic step of SA degradation, and thus it is of great importance to have an efficient SMO available for the pathway assembly. […] A putative SMO (encoded by nahG) was identified from the genome of P. putida DOT-T1E. […]

[2] = In vitro SMO enzyme assay; assay type: biochemical, P. putida DOT-T1E; conditions: purified His-tagged enzyme 0.97 nM
Method: (A) Kinetic parameters of the SMO. The Km and Vmax values were estimated with OriginPro8 through non-linear regression of the Michaelis-Menten equation. The protein concentration [E] of the SMO in the reaction systems was 0.97 nM. The kcat value was calculated according to the formula kcat=Vmax/[E]. […] (B) Conversion of SA to MA using the wild type E. coli strain carrying pZE-NC. […] Error bars are defined as s.d.
To express and purify the enzyme, E. coli BL21 Star (DE3) was transformed with the expression plasmid pET-NahG. A fresh transformant was inoculated in 3 ml LB medium containing 100 μg/ml of ampicillin and grown aerobically at 37° C. Overnight cultures were inoculated into 50 ml fresh LB medium and left to grow at 37° C. till OD600 reached 0.6 and then induced at 30° C. with 0.5 mM IPTG for another 3 h. Cells were then harvested and lysed by French Press. The recombinant protein with an N-terminal multi-histidine tag was purified using His-Spin protein miniprep kit (ZYMO […]). The enzyme concentration was measured using BCA kit (Pierce Chemicals). The standard enzyme assay was performed by making an assay mixture containing 500 μM NADH, 10 μM FAD, 0.97 nM purified enzyme, and SA as the substrate. The final volume was adjusted to 1 ml with Kpi buffer (20 mM, pH=7.0). […] The reaction rates were calculated by measuring the formation of catechol via HPLC. […]

Molecule | SA concentration that completely inhibited the cell proliferation (QH4 strain) [mg/L] | In vivo activity [1] [μM/min/OD] | In vivo activity ([1]; listed as SMO encoded by nahG^opt) [μM/min/OD] | Km ([2]; SA 0 to 100 μM, 500 μM NADH, 10 μM FAD, pH 7.0, 37° C.) [µM] | kcat ([2]; substrate SA, kcat=Vmax/[E]) [s⁻¹]
O=C(O)c1ccccc1O [SA, salicylic acid] | 1000 | – | – | – | –
B1 | – | 54.78 ± 1.65 | 54.78 | 4.37 | 96.56
